# Data reported in publication PMC12489471, “A multi-dentate, cooperative interaction between endo- and exo-ribonucleases within the bacterial RNA degradosome” (Nucleic Acids Research, 2025).
# “Also recorded” adds a separate entry of the source.
# T1: PNPase (Escherichia coli, UniProt P05055)
# T1 construct: made in house; host or cells: E. coli Evo21(DE3)
# T1 sequence (P05055 whole entry, looked up): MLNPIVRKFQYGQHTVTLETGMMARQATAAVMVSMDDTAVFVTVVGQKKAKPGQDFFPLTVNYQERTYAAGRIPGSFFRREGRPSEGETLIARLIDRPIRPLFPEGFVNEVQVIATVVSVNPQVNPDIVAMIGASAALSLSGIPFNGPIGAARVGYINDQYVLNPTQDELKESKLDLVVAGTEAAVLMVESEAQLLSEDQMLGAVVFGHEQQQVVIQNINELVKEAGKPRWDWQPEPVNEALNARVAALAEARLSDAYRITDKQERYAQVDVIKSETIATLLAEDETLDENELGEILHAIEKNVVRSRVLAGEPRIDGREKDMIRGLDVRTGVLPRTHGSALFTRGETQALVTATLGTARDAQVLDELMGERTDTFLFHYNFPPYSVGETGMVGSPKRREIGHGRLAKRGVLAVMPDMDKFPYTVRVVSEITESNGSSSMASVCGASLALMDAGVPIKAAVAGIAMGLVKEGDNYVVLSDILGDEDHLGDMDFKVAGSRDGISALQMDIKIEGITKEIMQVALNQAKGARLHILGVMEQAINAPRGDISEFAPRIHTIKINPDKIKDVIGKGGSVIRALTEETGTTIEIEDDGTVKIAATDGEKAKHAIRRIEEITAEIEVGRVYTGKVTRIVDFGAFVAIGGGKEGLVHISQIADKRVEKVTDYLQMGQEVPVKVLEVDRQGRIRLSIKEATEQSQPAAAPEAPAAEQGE
# Biological target: T1, PNPase
# Format: binding, E. coli
# Description: Briefly, at the N-terminal of the construct, there is an Hisx6 affinity tag that will be used for affinity purification. Following the Hisx6 tag there is an maltose-binding protein (MBP) tag with a TEV cleavage site to maintain solubility of the peptides. Following the MBP tag the gene encoding the peptide is inserted, and is then followed by intein, a self-cleavable tag, followed by a choline-binding domain, which can be used for an extra step of affinity purification. […] After expression, cells were harvested, resuspended in Lysis Buffer 2 (20 mM Tris–HCl, pH 8.0, 80 mM KCl, 300 mM NaCl, 20 mM Imidazole, 0.5 mM TCEP), and lysed with a cell disruptor (Emulsiflex, Avestin). […] After subsequent rounds of washing with Ni Equilibration Buffer supplemented with, respectively, 0.1% Triton-X, 1 M NaCl, and a final wash in Ni Equilibration Buffer, samples were eluted with Ni Elution Buffer (20 mM Tris–HCl, pH 8.0, 300 mM NaCl, 300 mM imidazole, 0.5 mM TCEP). Enriched fractions were then supplemented with 100 mM β-mercaptoethanol to catalyse intein self-cleavage overnight at room temperature. Treated samples were filtered and loaded on an amylose gravity flow column, equilibrated with Amy Equilibration Buffer (20 mM Tris–HCl, pH 8.0, 20 mM NaCl, 20 mM imidazole, 2 mM β-mercaptoethanol) and after washing, His-tagged TEV protease was applied to the resin and incubated at 4°C for 2 h.
# PNPase carrying a C-terminal Hisx6 tag was expressed from pExp-cis-Ec_PNP-CHis vector in E. coli Evo21(DE3) cells, induced with 0.4 mM IPTG, at 18°C overnight. After expression, cells were harvested and resuspended in Lysis Buffer 2 (20 mM Tris–HCl, pH 8.0, 80 mM KCl, 300 mM NaCl, 20 mM imidazole, 0.5 mM TCEP), and lysed with a cell disruptor (Emulsiflex, Avestin). […] After subsequent rounds of washing with equilibration buffer supplemented with 0.1% Triton-X, or 1 M NaCl, the sample was eluted with Ni PNPCHis Elution Buffer (20 mM NaH2PO4, pH 8.0, 300 mM NaCl, 300 mM KCl, 5 mM MgCl2, 300 mM imidazole, pH 7.5, 10 mM β-mercaptoethanol). […] Fractions containing PNPase were run through a HiPrep™ 26/10 Desalting Column (GE Healthcare) and buffer exchanged to Q PNPCHis A (20 mM NaH2PO4, pH 8.0, 30 mM NaCl, 10% glycerol, 0.5 mM TCEP).
# Interaction measurements were made using a Biacore T200 instrument (GE) at 25°C. PNPase with a 6xHisTag at the CTD was immobilized on a Series S Sensor Chip NTA (Cytiva) to provide a signal of 5 response units (RU). […] For the SPR analysis of the point mutants, binding to PNPase was measured at four different concentrations (0, 12.5, 25, and 50 nM). All concentrations were run in duplicates. The contact time was 60 s, while the dissociation time was 120 s, at a […] flow rate. […] The chip surface was regenerated with 350 mM EDTA in water, following manufacturer's instructions. Data were processed using the manufacturer’s BIAevaluation software.
# [1] = SPR, mutant vs wildtype RNase E 960–1061
molecule,measurement,setting,value
"RNase E 960 – 1061 R1012AR10546A: RNase E peptide with mutation of both Arg1012 and Arg1056 to alanine (left off: His6, N-terminal, cleaved | MBP, N-terminal, cleaved | intein, C-terminal, cleaved | choline-binding domain, C-terminal, cleaved, RNase E peptide with mutation of both Arg1012 and Arg1056 to alanine) VVETAEVVVAEPEVVAQPAAPVVAEVAAEVETVAAVEPEVTVEHNHATAPMTAAPAPEYVPEAPRHSDWQRPTFAFEGKGAAGGHTATHHASAAPAAPQPVE","Kd (dissociation rate constant, point mutants and wildtype)","SPR, 25°C, immobilized PNPase C-His, HEPES pH 7.2, 0, 12.5, 25 and 50 nM (point mutants), contact 120 s, dissociation 120 s, duplicates",0.12 s⁻¹
same,KD range in words (double mutant),"SPR, 25°C, immobilized PNPase C-His, contact 120 s",low micromolar range
same,"association rate compared to R1056A, in words","SPR, double mutant vs slowest-binding single mutant (R1056A)",ten-fold slower
same,"association rate compared to the wildtype, in words",[1],about two orders of magnitude slower
same,"dissociation rate (off-rate) compared to the wildtype, in words",[1],faster off-rate
same,"effect on KD / binding compared to the wildtype, in words","SPR, mutant vs wildtype RNase E 960–1061, listed as R1012AR1056A",significant decrease in binding; also recorded: significantly affected the binding to PNPase
"RNase E 960–1039: RNase E peptide carrying the plausible secondary binding motif β2 (left off: His6, N-terminal, cleaved | MBP, N-terminal, cleaved | intein, C-terminal, cleaved | choline-binding domain, C-terminal, cleaved) VVETAEVVVAEPEVVAQPAAPVVAEVAAEVETVAAVEPEVTVEHNHATAPMTRAPAPEYVPEAPRHSDWQRPTFAFEGKG",binding to PNPase (detected or not),pH 7.2,does not interact with PNPase; also recorded: no binding was detected
"RNase E 985-1061: RNase E peptide that includes both β1 and β2 motifs (left off: His6, N-terminal, cleaved | MBP, N-terminal, cleaved | intein, C-terminal, cleaved | choline-binding domain, C-terminal, cleaved, RNase E peptide that includes both β1 and β2 motifs) VAAEVETVAAVEPEVTVEHNHATAPMTRAPAPEYVPEAPRHSDWQRPTFAFEGKGAAGGHTATHHASAAPARPQPVE","cause of increase in affinity over 1039–1061, in words",,both acceleration of on-rate and decrease of off-rate
same,KD range in words,pH 7.2,from the micromolar range to the low nanomolar range
same,k a,pH 7.2,3.93E + 6 1/M s
same,k d,pH 7.2,0.0158 s⁻¹
"RNase E 985-1053: RNase E peptide lacking the terminal Pro-rich motif (left off: His6, N-terminal, cleaved | MBP, N-terminal, cleaved | intein, C-terminal, cleaved | choline-binding domain, C-terminal, cleaved, RNase E peptide lacking the terminal Pro-rich motif) VAAEVETVAAVEPEVTVEHNHATAPMTRAPAPEYVPEAPRHSDWQRPTFAFEGKGAAGGHTATHHASAA","binding compared with the peptide including the region with Arg1056, in words",,significantly weaker binding
same,KD range in words,pH 7.2,high micromolar
same,k a,pH 7.2,2.94E + 4 1/M s
same,k d,pH 7.2,0.339 s⁻¹
